The record followed here is publication PMC10108200, “Reaction Pathways for the Enzymatic Degradation of Poly(Ethylene Terephthalate): What Characterizes an Efficient PET‐Hydrolase?” (Chembiochem, 2022).

For orientation: Km means the substrate concentration at which the rate is half of its maximum. The kcat is the maximal rate divided by the concentration of active sites.

Common to all, as to assay: initial rates by RP-HPLC, Michaelis-Menten fit
Substrate in data set [1]: O=C(O)c1ccc(C(=O)OCCOC(=O)c2ccc(C(=O)OCCO)cc2)cc1
In kind it is biochemical, Mycothermus thermophilus. The settings on record: 50 °C, 10 min, 0-2 mM substrate, 0.01-0.5 μM enzyme. From the text:
(§1) initial rates by RP-HPLC, Michaelis-Menten fit on HiC

Substrate in data set [2]: O=C(O)c1ccc(C(=O)OCCOC(=O)c2ccc(C(=O)OCCOC(=O)c3ccc(C(=O)O)cc3)cc2)cc1
In kind it is biochemical, Mycothermus thermophilus. To be noted: 50 °C, 10 min, 0-2 mM substrate, 0.01-0.5 μM enzyme.
Source text: as §1

Substrate in data set [3]: O=C(O)c1ccc(C(=O)OCCO)cc1
The data set is classed as biochemical, unidentified prokaryotic organism. To be noted: 50 °C, 2 h, 0-2 mM substrate, 0.01-0.5 μM enzyme. From the text: (§2) initial rates by RP-HPLC, Michaelis-Menten fit on LCC

Substrate in data set [4]: O=C(O)c1ccc(C(=O)OCCOC(=O)c2ccc(C(=O)OCCO)cc2)cc1
The data set is classed as biochemical, unidentified prokaryotic organism. The settings on record: 50 °C, 10 min, 0-2 mM substrate, 0.01-0.5 μM enzyme.
Source text: as §2

Substrate in data set [5]: O=C(OCCO)c1ccc(C(=O)OCCO)cc1
The data set is classed as biochemical, unidentified prokaryotic organism. The settings on record: 50 °C, 10 min, 0-2 mM substrate, 0.01-0.5 μM enzyme.
Source text: as §2

Substrate in data set [6]: O=C(O)c1ccc(C(=O)OCCOC(=O)c2ccc(C(=O)OCCOC(=O)c3ccc(C(=O)O)cc3)cc2)cc1
In kind it is biochemical, unidentified prokaryotic organism. The settings on record: 50 °C, 10 min, 0-2 mM substrate, 0.01-0.5 μM enzyme.
Source text: as §2

Substrate in data set [7]: O=C(O)c1ccc(C(=O)OCCO)cc1
In kind it is biochemical, Thermobifida fusca. The settings on record: 50 °C, 2 h, 0-2 mM substrate, 0.01-0.5 μM enzyme. The source says:
(§3) initial rates by RP-HPLC, Michaelis-Menten fit on TfC

Substrate in data set [8]: O=C(O)c1ccc(C(=O)OCCOC(=O)c2ccc(C(=O)OCCO)cc2)cc1
In kind it is biochemical, Thermobifida fusca. The settings on record: 50 °C, 10 min, 0-2 mM substrate, 0.01-0.5 μM enzyme.
Source text: as §3

Substrate in data set [9]: O=C(OCCO)c1ccc(C(=O)OCCO)cc1
The data set is classed as biochemical, Thermobifida fusca. The settings on record: 50 °C, 10 min, 0-2 mM substrate, 0.01-0.5 μM enzyme.
Source text: as §3

Substrate in data set [10]: O=C(O)c1ccc(C(=O)OCCOC(=O)c2ccc(C(=O)OCCOC(=O)c3ccc(C(=O)O)cc3)cc2)cc1
In kind it is biochemical, Thermobifida fusca. To be noted: 50 °C, 10 min, 0-2 mM substrate, 0.01-0.5 μM enzyme.
Source text: as §3

B1: HiC (Mycothermus thermophilus) (protein)
chain: QLGAIENGLESGSANACPDAILIFARGSTEPGNMGITVGPALANGLESHIRNIWIQGVGGPYDAALATNFLPRGTSQANIDEGKRLFALANQKCPNTPVVAGGYSQGAALIAAAVSELSGAVKEQVKGVALFGYTQNLQNRGGIPNYPRERTKVFCNVGDAVCTGTLIITPAHLSYTIEARGEAARFLRDRIRA
For B1, in data set [1], the Km worked out at 77 ± 9.1 µM and the kcat was 2.9 ± 0.098 s⁻¹. Further, in data set [2], the Michaelis constant (Km) amounted to 89 ± 21 µM and the kcat amounted to 24 ± 2.9 s⁻¹.

B2: LCC (unidentified prokaryotic organism) (protein)
chain: QSNPYQRGPNPTRSALTADGPFSVATYTVSRLSVSGFGGGVIYYPTGTSLTFGGIAMSPGYTADASSLAWLGRRLASHGFVVLVINTNSRFDYPDSRASQLSAALNYLRTSSPSAVRARLDANRLAVAGHSMGGGGTLRIAEQNPSLKAAVPLTPWHTDKTFNTSVPVLIVGAEADTVAPVSQHAIPFYQNLPSTTPKVYVELDNASHFAPNSNNAAISVYTISWMKLWVDNDTRYRQFLCNVNDPALSDFRTNNRHCQ
notes: heterologously expressed and purified
As for B2, the Km in [3] came to 1200 ± 130 µM; in data set [4], 120 ± 35 µM; in data set [5], 960 ± 160 µM; in data set [6], 790 ± 410 µM. Besides, the kcat was 0.048 ± 0.0033 s⁻¹ in data set [3], 21 ± 1.7 s⁻¹ in data set [4], 6.2 ± 0.62 s⁻¹ in data set [5] and 300 ± 122 s⁻¹ in [6].

B3: TfC (Thermobifida fusca YX) (protein)
chain: ANPYERGPNPTDALLEASSGPFSVSEENVSRLSASGFGGGTIYYPRENNTYGAVAISPGYTGTEASIAWLGERIASHGFVVITIDTITTLDQPDSRAEQLNAALNHMINRASSTVRSRIDSSRLAVMGHSMGGGGTLRLASQRPDLKAAIPLTPWHLNKNWSSVTVPTLIIGADLDTIAPVATHAKPFYNSLPSSISKAYLELDGATHFAPNIPNKIIGKYSVAWLKRFVDNDTRYTQFLCPGPRDGLFGEVEEYRSTCPF
With B3, the Michaelis-Menten constant (Km) came out at 3800 ± 91 µM in data set [7], 170 ± 16 µM in data set [8], 230 ± 67 µM in data set [9] and 170 ± 38 µM in data set [10]. The kcat in data set [8] was 11 ± 0.35 s⁻¹; in [9], 1.1 ± 0.12 s⁻¹; in data set [10], 62 ± 7.3 s⁻¹.
